Experimental data from patent US20220363757A1 (SYMPHOGEN A S, published 2022).
Numbering of substitutions follows the chain as printed. Numbers in names are those of the source.

T1: human LAG-3 on transiently transfected CHO-S cells (human, UniProt P18627 23-525)
T1 construct: also called huLAG-3
T1 sequence: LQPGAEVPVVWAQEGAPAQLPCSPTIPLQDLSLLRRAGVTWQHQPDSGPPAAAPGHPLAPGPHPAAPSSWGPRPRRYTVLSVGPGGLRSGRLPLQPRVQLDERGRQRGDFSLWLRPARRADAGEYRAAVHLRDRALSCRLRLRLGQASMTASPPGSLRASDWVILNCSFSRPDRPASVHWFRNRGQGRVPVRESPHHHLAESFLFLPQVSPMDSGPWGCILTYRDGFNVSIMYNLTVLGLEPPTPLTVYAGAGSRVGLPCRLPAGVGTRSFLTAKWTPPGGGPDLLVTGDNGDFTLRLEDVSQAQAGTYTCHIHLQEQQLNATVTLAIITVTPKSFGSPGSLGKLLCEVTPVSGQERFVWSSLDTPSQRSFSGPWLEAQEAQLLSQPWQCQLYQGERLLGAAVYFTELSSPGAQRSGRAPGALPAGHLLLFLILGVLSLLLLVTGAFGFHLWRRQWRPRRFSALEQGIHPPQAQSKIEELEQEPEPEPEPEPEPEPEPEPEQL

T2: R-PE-labeled recombinant human LAG-3-Fc chimera protein (R&D Systems) (human, UniProt P18627 23-450, conjugated to R-phycoerythrin)
T2 construct: bought; also called LAG-3-Fc-PE; soluble LAG-3; not shown: Fc of the bought chimera, not described
T2 sequence: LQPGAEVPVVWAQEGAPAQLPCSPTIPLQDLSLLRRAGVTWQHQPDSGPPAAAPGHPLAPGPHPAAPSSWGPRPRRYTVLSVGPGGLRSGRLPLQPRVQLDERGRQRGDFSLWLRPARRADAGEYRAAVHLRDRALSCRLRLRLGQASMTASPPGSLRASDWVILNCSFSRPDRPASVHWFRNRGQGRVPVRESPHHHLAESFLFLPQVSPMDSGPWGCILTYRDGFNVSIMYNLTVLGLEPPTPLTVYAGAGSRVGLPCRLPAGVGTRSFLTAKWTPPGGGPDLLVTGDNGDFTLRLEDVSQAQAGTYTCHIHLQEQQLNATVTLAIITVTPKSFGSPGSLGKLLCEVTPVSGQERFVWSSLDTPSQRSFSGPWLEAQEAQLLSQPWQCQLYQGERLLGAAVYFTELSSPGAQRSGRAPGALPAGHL

B1: antibody 15572 (antibody, human IgG1, kappa, L234A L235A, V domains shown)
VH: QLQLQESGPGLVKPSETLSLTCTVSGDSISSSSYYWGWIRQPPGKGLEWIGSIFYSGNTYYNPSLKSRVTISVDTSKNQFSLKLSSVTAADTAVYYCAREDDFLTDYYGAFDIWGQGTMVTVSS
VL: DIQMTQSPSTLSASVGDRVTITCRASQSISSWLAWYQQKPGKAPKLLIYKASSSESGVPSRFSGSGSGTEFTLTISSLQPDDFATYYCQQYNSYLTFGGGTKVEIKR
notes: OmniRat-derived human IgG1 LALA, kappa; also called 15572 (91)
B2: antibody 15595 (antibody, V domains shown)
VH: QVQLVQSGAEVKKPGASVKVSCKVSGYSLTEISMHWVRQAPGKGLEWMGGFDPEDGETIYAQRFQGRVIMTEDTSTDTAYMELSSLRSEDTAVYYCATGGWGPNWFDPWGQGTLVTVSS
VL: DIQMTQSPSSVSASVGDRVTITCRASQGISSWLAWYQQKPGKAPKLLIYAASSLQSGVPSRFSGSGSGTDFTLTISSLQPEDFATYYCQQANSFPFTFGPGTKVDIKR
notes: OmniRat-derived human IgG1 LALA, kappa; also called 15595 (52)
B3: antibody 15646 (antibody, human IgG1, kappa, L234A L235A, V domains shown)
VH: QVQLQQWGAGLLKPSETLSLTCAVYGGSFSGYYWSWIRQPPGKGLEWIGEINHRGSTNYNPSLKSRVTISVDTSKNQFSLKLSSVTAADTAVYYCTRGEEWESLFFDYWGQGTLVTVSS
VL: EIVLTQSPATLSLSPGERATLSCRASQSISSYLAWYQQKPGQAPRLLIYGASNRATGIPARFSGSGSGTDFTLTISSLEPEDFAVYYCQQRSNWPLTFGGGTRVEIKR
notes: OmniRat-derived human IgG1 with L234A/L235A (LALA), kappa; also called 15646 (15)
B4: antibody 15532 (antibody, human IgG1, kappa, L234A L235A, V domains shown)
VH: QVQLQQWGAGLLRPSETLSLTCAVYGESFSGYYWNWIRQPPGKGLEWIGEINHSGSTNYNPSLKSRVTISVDTSKTQFSLKLSSVTAADTAVYYCARGWDLLDWNDYWNEYWGQGTLVTVSS
VL: B3 VL with I29V, G50D, R103K
notes: OmniRat-derived human IgG1 LALA, kappa
B5: antibody 15431 (antibody, human IgG1, kappa, L234A L235A, V domains shown)
VH: QVQLQQSGPGLVKPSQTLSLTCAISGDSVSSNSAAWNWIRQSPSRGLEWLGRTYYRSKWYNDYAVSVKSRITINPDTSKNQFSLQLNSVTPEDTAVYYCARDDDWNDFDYWGQGTLVTVSS
VL: B3 VL with I29V, G50D, R103K
notes: OmniRat-derived human IgG1 LALA, kappa; also called 15431 (38); 15431 (83)
B6: antibody 15723 (antibody, human IgG1, kappa, L234A L235A, V domains shown)
VH: B3 VH with S35N, R54S, T96A, E100D, E102G, S103E, L104S
VL: B3 VL with I29V, G50A, R103K
notes: OmniRat-derived human IgG1 LALA, kappa; also called 15723 (39)
B7: antibody 15011 (antibody, human IgG1, lambda, L234A L235A, V domains shown)
VH: EVQLLESGGGLVQPGGSLRLSCAASGFDFRSYAMMWVRQAPGKGLEWVGGINGEVGGSNTYYAPAVKGRATISRDNSKNTLYLQMNSLRAEDTAVYYCVKGAGACGICNDDIDAWGQGTLVTVSS
VL: SYELTQDPAVSVALGQTVRITCSGAGSYAGSYYYGWHQQKPGQAPVTVIYDNDKRPSNIPDRFSGSSSGNTASLTITGAQAEDEADYYCGSTNDNDDGGLFGSGTKVTVLG
notes: humanized chicken-derived antibody, human IgG1 constant region, lambda (IGLC1*01)

Each binder was assayed against T1, human LAG-3 on transiently transfected … (assay: flow cytometry on transfected CHO-S cells).

EC50 [nM] | Binder
0.07 | B1
0.05 | B2
0.1 | B3
0.07 | B4
0.04 | B5
0.09 | B6

The binders below were run against T2, R-PE-labeled recombinant human LAG-3-Fc … (assay: flow cytometric competition, LAG-3-Fc-PE binding to MHCII on A375 cells, antibody 20 ug/mL).

LAG-3/MHCII Blocking (%) | Binder
37 | B1
94 | B2
92 | B7
49 | B3
89 | B4
92 | B5
55 | B6
